Source: IntAct's records for PubMed 20558380

B1: Vang-like protein 2 (Homo sapiens), Q9ULK5 (parent)
chain: MDTESQYSGYSYKSGHSRSSRKHRDRRDRHRSKSRDGGRGDKSVTIQAPGEPLLDNESTRGDERDDNWGETTTVVTGTSEHSISHDDLTRIAKDMEDSVPLDCSRHLGVAAGATLALLSFLTPLAFLLLPPLLWREELEPCGTACEGLFISVAFKLLILLLGSWALFFRRPKASLPRVFVLRALLMVLVFLLVVSYWLFYGVRILDARERSYQGVVQFAVSLVDALLFVHYLAVVLLELRQLQPQFTLKVVRSTDGASRFYNVGHLSIQRVAVWILEKYYHDFPVYNPALLNLPKSVLAKKVSGFKVYSLGEENSTNNSTGQSRAVIAAAARRRDNSHNEYYYEEAEHERRVRKRRARLVVAVEEAFTHIKRLQEEEQKNPREVMDPREAAQAIFASMARAMQKYLRTTKQQPYHTMESILQHLEFCITHDMTPKAFLERYLAAGPTIQYHKERWLAKQWTLVSEEPVTNGLKDGIVFLLKRQDFSLVVSTKKVPFFKLSEEFVDPKSHKFVMRLQSETSV
partner: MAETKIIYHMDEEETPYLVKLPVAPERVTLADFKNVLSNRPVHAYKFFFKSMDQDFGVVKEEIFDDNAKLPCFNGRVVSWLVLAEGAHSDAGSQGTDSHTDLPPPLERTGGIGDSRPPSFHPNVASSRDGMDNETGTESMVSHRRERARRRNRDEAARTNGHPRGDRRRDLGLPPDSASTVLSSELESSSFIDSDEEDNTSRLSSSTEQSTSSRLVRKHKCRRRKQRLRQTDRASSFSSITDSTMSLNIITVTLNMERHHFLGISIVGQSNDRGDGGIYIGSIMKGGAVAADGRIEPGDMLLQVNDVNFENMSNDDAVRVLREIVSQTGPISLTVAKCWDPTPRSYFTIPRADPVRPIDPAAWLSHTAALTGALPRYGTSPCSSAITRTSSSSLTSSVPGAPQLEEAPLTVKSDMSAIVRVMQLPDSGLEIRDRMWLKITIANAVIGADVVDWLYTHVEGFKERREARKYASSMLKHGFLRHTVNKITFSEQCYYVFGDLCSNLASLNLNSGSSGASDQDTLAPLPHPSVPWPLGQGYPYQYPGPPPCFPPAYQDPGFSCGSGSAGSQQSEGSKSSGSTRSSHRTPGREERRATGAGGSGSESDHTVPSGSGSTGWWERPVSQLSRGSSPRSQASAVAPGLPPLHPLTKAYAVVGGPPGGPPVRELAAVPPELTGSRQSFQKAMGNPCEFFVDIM
B2: Vang-like protein 2 (Homo sapiens), Q9ULK5 (parent)
chain: B1 chain
partner: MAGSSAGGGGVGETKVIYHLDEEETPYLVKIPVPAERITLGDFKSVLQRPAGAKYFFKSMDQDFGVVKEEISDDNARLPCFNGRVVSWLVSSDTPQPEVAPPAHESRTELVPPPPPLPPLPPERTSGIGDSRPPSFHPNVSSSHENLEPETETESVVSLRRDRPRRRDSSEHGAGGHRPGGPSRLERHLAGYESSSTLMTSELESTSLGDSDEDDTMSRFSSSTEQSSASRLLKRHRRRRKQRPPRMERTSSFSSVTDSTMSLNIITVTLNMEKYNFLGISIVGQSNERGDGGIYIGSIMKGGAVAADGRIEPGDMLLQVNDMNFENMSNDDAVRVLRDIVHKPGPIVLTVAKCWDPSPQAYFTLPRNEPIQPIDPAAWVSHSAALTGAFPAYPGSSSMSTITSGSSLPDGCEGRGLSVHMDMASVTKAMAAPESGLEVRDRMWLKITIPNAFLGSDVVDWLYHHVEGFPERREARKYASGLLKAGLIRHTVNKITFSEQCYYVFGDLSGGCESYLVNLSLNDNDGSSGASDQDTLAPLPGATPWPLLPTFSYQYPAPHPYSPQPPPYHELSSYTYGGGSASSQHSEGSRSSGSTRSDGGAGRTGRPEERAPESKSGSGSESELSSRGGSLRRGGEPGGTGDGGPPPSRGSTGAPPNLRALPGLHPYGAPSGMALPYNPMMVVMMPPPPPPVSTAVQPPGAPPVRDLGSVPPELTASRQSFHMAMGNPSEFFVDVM

Variants of: B1
Settings: with dvl1_mouse Dvl1, P51141

Row | Variant | effect of a mutation on the interaction
1 | MDTESQYSGYSYKSGHSRSSRKHRDRRDRHRSKSRDGGRGDKSVTIQAPGEPLLDNESTRGDERDDNWGETTTVVTGTSEHSISHDDLTRIAKDMEDSVPLDCSRHLGVAAGATLALLSFLTPLAFLLLPPLLWREELEPCGTACEGLFISVAFKLLILLLGSWALFFRRPKASLPRVFVLRALLMVLVFLLVVSYWLFYGVRILDARERSYQGVVQFAVSLVDALLFVHYLAVVLLELRQLQPQFTLKVVRSTDGASRFYNVGHLSIQRVAVWILEKYYHDFPVYNPALLNLPKSVLAKKVSGFKVYSLGEENSTNNSTGQSRAVIAAAARRRDNSHNEYYYEEAEHERRVRKRRARLVVAVEEAFTHIKRLQEEEQKNPREVMDPREAAQAIFASMARAMQKYLRTTKQQPYHTMESILQHLEFCITHDMTPKASLERYLAAGPTIQYHKERWLAKQWTLVSEEPVTNGLKDGIVFLLKRQDFSLVVSTKKVPFFKLSEEFVDPKSHKFVMRLQSETSV [F437S] | disrupting interaction
2 | MDTESQYSGYSYKSGHSRSSRKHRDRRDRHRSKSRDGGRGDKSVTIQAPGEPLLDNESTRGDERDDNWGETTTVVTGTSEHSISHDDLTRIAKDMEDSVPLDCSRHLGVAAGATLALLSFLTPLAFLLLPPLLWREELEPCGTACEGLFISVAFKLLILLLGSWALFFRRPKASLPRVFVLRALLMVLVFLLVVSYWLFYGVRILDARERSYQGVVQFAVSLVDALLFVHYLAVVLLELRQLQPQFTLKVVRSTDGASRFYNVGHLSIQRVAVWILEKYYHDFPVYNPALLNLPKSVLAKKVSGFKVYSLGEENSTNNSTGQSRAVIAAAARRRDNSHNEYYYEEAEHERRVRKRRARLVVAVEEAFTHIKRLQEEEQKNPREVMDPREAAQAIFASMARAMQKYLRTTKQQPYHTMESILQHLEFCITHDMTPKAFLERYLAAGPTIQYHKERWLAKQWTLVNEEPVTNGLKDGIVFLLKRQDFSLVVSTKKVPFFKLSEEFVDPKSHKFVMRLQSETSV [S464N] | disrupting interaction
3 | MDTESQYSGYSYKSGHSRSSRKHRDRRDRHRSKSRDGGRGDKSVTIQAPGEPLLDNESTRGDERDDNWGETTTVVTGTSEHSISHDDLTRIAKDMEDSVPLDCSRHLGVAAGATLALLSFLTPLAFLLLPPLLWREELEPCGTACEGLFISVAFKLLILLLGSWALFFRRPKASLPRVFVLRALLMVLVFLLVVSYWLFYGVRILDARERSYQGVVQFAVSLVDALLFVHYLAVVLLELRQLQPQFTLKVVRSTEGASRFYNVGHLSIQRVAVWILEKYYHDFPVYNPALLNLPKSVLAKKVSGFKVYSLGEENSTNNSTGQSRAVIAAAARRRDNSHNEYYYEEAEHERRVRKRRARLVVAVEEAFTHIKRLQEEEQKNPREVMDPREAAQAIFASMARAMQKYLRTTKQQPYHTMESILQHLEFCITHDMTPKAFLERYLAAGPTIQYHKERWLAKQWTLVSEEPVTNGLKDGIVFLLKRQDFSLVVSTKKVPFFKLSEEFVDPKSHKFVMRLQSETSV [D255E] | disrupting interaction
4 | MDTESQYSGYSYKSGHSRSSRKHRDRRDRHRSKSRDGGRGDKSVTIQAPGEPLLDNESTRGDERDDNWGETTTVVTGTSEHSISHDDLTRIAKDMEDSVPLDCSRHLGVAAGATLALLSFLTPLAFLLLPPLLWREELEPCGTACEGLFISVAFKLLILLLGSWALFFRRPKASLPRVFVLRALLMVLVFLLVVSYWLFYGVRILDARERSYQGVVQFAVSLVDALLFVHYLAVVLLELRQLQPQFTLKVVRSTDGASRFYNVGHLSIQRVAVWILEKYYHDFPVYNPALLNLPKSVLAKKVSGFKVYSLGEENSTNNSTGQSRAVIAAAARRRDNSHNEYYYEEAEHERRVCKRRARLVVAVEEAFTHIKRLQEEEQKNPREVMDPREAAQAIFASMARAMQKYLRTTKQQPYHTMESILQHLEFCITHDMTPKAFLERYLAAGPTIQYHKERWLAKQWTLVSEEPVTNGLKDGIVFLLKRQDFSLVVSTKKVPFFKLSEEFVDPKSHKFVMRLQSETSV [R353C] | decreasing interaction

Variants of: B2
Settings: with dvl2_mouse Dvl2, Q60838

Row | Variant | effect of a mutation on the interaction
5 | MDTESQYSGYSYKSGHSRSSRKHRDRRDRHRSKSRDGGRGDKSVTIQAPGEPLLDNESTRGDERDDNWGETTTVVTGTSEHSISHDDLTRIAKDMEDSVPLDCSRHLGVAAGATLALLSFLTPLAFLLLPPLLWREELEPCGTACEGLFISVAFKLLILLLGSWALFFRRPKASLPRVFVLRALLMVLVFLLVVSYWLFYGVRILDARERSYQGVVQFAVSLVDALLFVHYLAVVLLELRQLQPQFTLKVVRSTDGASRFYNVGHLSIQRVAVWILEKYYHDFPVYNPALLNLPKSVLAKKVSGFKVYSLGEENSTNNSTGQSRAVIAAAARRRDNSHNEYYYEEAEHERRVCKRRARLVVAVEEAFTHIKRLQEEEQKNPREVMDPREAAQAIFASMARAMQKYLRTTKQQPYHTMESILQHLEFCITHDMTPKAFLERYLAAGPTIQYHKERWLAKQWTLVSEEPVTNGLKDGIVFLLKRQDFSLVVSTKKVPFFKLSEEFVDPKSHKFVMRLQSETSV [R353C] | decreasing interaction
6 | MDTESQYSGYSYKSGHSRSSRKHRDRRDRHRSKSRDGGRGDKSVTIQAPGEPLLDNESTRGDERDDNWGETTTVVTGTSEHSISHDDLTRIAKDMEDSVPLDCSRHLGVAAGATLALLSFLTPLAFLLLPPLLWREELEPCGTACEGLFISVAFKLLILLLGSWALFFRRPKASLPRVFVLRALLMVLVFLLVVSYWLFYGVRILDARERSYQGVVQFAVSLVDALLFVHYLAVVLLELRQLQPQFTLKVVRSTEGASRFYNVGHLSIQRVAVWILEKYYHDFPVYNPALLNLPKSVLAKKVSGFKVYSLGEENSTNNSTGQSRAVIAAAARRRDNSHNEYYYEEAEHERRVRKRRARLVVAVEEAFTHIKRLQEEEQKNPREVMDPREAAQAIFASMARAMQKYLRTTKQQPYHTMESILQHLEFCITHDMTPKAFLERYLAAGPTIQYHKERWLAKQWTLVSEEPVTNGLKDGIVFLLKRQDFSLVVSTKKVPFFKLSEEFVDPKSHKFVMRLQSETSV [D255E] | disrupting interaction
